# Laboratory results from patent publication US9150655B2, “Anti-C-met antibody and methods of use thereof” (ACADEMIA SINICA, priority 2010, dated 2015).
# B1: S21: soluble anti-c-Met scFv corresponding to phage clone PC21; VH/VL sequences in Table 1 (protein)
# scFv: MAEVQLVESGPGLVKPSGTLSLKCDASAISMDSNYWWSWLRQPPGKGLEWIGEISHSGSTDYNPSLKSRATISIDKSKKQFFLRLKSVTAADTAVYYCAGLLSPLDAFDEWGQGTMVTVGGGGSGGGGSGGGGSDIQMTQSPSSLSASVGDRVTITCRASQRVATYLNWYQQKPGKAPNLLIYEASSLQSGVPSRFSGRRSGTDFTLTISSLQPEDFATYYCQQSYNTPYTFGQGTRLEIKR
# modifications: left off: small tags and cut ends
# B2: PC1: phage-displayed anti-c-Met scFv, phage clone 1 (protein)
# scFv: MAQVQLQQSGPGLVKPSQTLSLTCDISGDSVSSNSAAWNWIRQSPSRGLEWLGRTYYRSRWYNEYAVSVRGRISINAETSKNQFSLQLNSVTPEDTAIYYCARAGFCSGGNCYPGSEDAFDLWGQGTMVTVGGGGSGGGGSGGGGSDVVMTQSPPSLSVSVGDRVTITCRASQDITNDLNWYQQKPGKAPQLLIYHASELETGVPSRFSGSGFGTDFTLTISSLQPADIATYYCQQYDDLPLTFGGGTKVEIKR
# modifications: left off: large carriers
# Columns and labels:
# c-MetF932-Fc protein = target: T1, c-MetF932-Fc protein (Homo sapiens, UniProt P08581); test: Competitive ELISA: soluble scFv inhibit HGF binding to immobilized c-Met protein; conditions: different concentrations of soluble scFv
# T1 construct: DNA fragments encoding amino acid residues 1 to 932 and 1 to 567 of c-Met were amplified by PCR; made in house; host or cells: 293T cells, transient transfection, protein G purification from supernatant
# T1 sequence (P08581 25-307 limits assumed): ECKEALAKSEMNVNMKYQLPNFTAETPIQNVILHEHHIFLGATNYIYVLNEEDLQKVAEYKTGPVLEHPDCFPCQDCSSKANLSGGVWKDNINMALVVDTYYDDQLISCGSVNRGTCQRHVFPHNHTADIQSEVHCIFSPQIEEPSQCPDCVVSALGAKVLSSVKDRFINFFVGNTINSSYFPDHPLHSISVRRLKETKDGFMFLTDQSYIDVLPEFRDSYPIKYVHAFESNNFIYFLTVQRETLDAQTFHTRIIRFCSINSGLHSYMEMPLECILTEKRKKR
# T1 sequence (P08581 308-932 limits assumed): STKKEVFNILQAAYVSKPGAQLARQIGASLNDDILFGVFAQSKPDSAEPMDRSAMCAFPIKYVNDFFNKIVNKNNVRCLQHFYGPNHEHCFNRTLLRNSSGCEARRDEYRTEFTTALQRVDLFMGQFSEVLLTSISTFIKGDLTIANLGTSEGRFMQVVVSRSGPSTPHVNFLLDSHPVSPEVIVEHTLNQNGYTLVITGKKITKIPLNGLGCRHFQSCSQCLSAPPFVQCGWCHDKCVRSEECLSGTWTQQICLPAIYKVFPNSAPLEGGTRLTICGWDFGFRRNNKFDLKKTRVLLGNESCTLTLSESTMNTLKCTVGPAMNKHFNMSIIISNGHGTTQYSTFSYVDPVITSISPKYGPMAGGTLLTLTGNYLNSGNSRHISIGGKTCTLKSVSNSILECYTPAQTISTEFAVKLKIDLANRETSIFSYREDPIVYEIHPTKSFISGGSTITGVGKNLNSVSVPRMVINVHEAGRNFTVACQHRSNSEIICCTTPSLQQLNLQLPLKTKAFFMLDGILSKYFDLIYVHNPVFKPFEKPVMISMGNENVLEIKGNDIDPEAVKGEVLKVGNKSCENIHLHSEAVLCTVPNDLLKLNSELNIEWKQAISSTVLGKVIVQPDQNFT
# Protocol: To monitor inhibition effect of scFv, we coated the c-MetF932-Fc protein on a 96-well plate and blocked nonspecific binder with 3% BSA in PBS. 1 nM human HGF (R&D) plus varying concentrations of anti-c-Met scFv or normal mouse IgG were applied to the wells. The amount of HGF bound to c-Met was determined using goat anti-human HGF (R&D), following incubation of HRP-labeled mouse anti-goat IgG (Jackson ImmunoResearch) and OPD substrate (Sigma) plus H2O2. The absorbance was measured with 490 nm using a microplate reader. Inhibition percentage was calculated by the following equation: [(the absorbance of HGF bound without competitor)−(the absorbance of HGF bound with competitor)]/(the absorbance of HGF bound without competitor)×100%.
# (§1) To test whether the three anti-c-Met scFvs could inhibit HGF binding to c-Met, the human lung cancer cell line H1993 was chosen to undergo competition ELISA (Lutterbach B et al. (2007) Cancer Res 67:2081-2088). […] HGF binding to H1993 cells without competitors was considered 100%. H1993 is known to express a high level of c-Met. When H1993 cells were incubated with HGF in the presence of the phage clones, the binding of HGF to H1993 cells was diminished by more than 90% by the anti-c-Met scFv PC1. PC20 inhibited more than 50% of HGF binding to c-Met (FIG. 2, panel A). The competitive inhibition of HGF by different concentrations of soluble scFvs was also tested. Normal mouse IgG (NMIgG) was used as a negative control. HGF binding to immobilized c-Met protein without competitors was considered 100%.
# c-Met567-Fc protein = target: T2, c-Met567-Fc protein (Homo sapiens, UniProt P08581); test: Epitope ELISA on c-Met932-Fc and c-Met567-Fc; format: binding; conditions: immobilized recombinant proteins
# T2 construct: DNA fragments encoding amino acid residues 1 to 932 and 1 to 567 of c-Met were amplified by PCR; made in house; host or cells: 293T cells, transient transfection, protein G purification from supernatant
# T2 sequence (P08581 25-567): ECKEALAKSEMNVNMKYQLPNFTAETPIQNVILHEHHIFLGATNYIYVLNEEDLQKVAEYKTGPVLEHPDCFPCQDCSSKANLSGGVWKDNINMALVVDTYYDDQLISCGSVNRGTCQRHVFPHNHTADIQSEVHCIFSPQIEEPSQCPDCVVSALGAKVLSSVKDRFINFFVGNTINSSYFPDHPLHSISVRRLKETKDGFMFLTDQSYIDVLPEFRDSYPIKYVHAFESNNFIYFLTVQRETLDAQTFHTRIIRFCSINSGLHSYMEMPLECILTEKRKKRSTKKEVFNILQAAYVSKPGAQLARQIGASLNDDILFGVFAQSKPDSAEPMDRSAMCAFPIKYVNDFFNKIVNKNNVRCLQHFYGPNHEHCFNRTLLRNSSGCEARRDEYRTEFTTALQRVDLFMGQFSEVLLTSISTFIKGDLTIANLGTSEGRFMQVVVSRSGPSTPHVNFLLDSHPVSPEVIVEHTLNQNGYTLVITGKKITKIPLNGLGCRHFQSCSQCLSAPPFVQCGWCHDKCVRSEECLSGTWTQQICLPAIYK
# Protocol: Therefore, binding epitopes of anti-c-Met scFvs localized within HGF binding domain of c-Met were investigated. The binding ability of anti-c-Met scFvs was examined for c-Met932-Fc protein including whole extracellular domain of c-Met, and c-Met567-Fc protein containing Sema and PSI domain, both of which have been defined as HGF binding regions (FIG. 2, panel C). The c-Met recombinant proteins were immobilized on titer wells, and incubated with anti-c-Met scFvs. Anti-c-Met polyclonal antibody and anti-E tag antibody was used as a positive and negative control, respectively. […] The binding intensity of S1 for c-Met932-Fc was similar to that for c-Met567-Fc.
# c-Met932-Fc protein = target: T3, c-Met932-Fc protein (Homo sapiens, UniProt P08581); test: Binding kinetics of anti-c-Met scFv by SPR (BIAcore)
# T3 construct: DNA fragments encoding amino acid residues 1 to 932 and 1 to 567 of c-Met were amplified by PCR; made in house; host or cells: 293T cells, transient transfection, protein G purification from supernatant
# T3 sequence (P08581 25-307): as the sequence (P08581 25-307 limits assumed) above
# T3 sequence (P08581 308-932): as the sequence (P08581 308-932 limits assumed) above
# Protocol: The affinity and kinetics of anti-c-Met scFv were measured by SRP in BIAcore X (GE healthcare). In BIAcore flowcell, 30 μg/ml of c-MetF932-Fc protein was coupled to EDC- and NHS-activated CM5 sensor chip followed by blocking with ethanolamine according to manufacturer's directions. Associated and dissociated phases were monitored for 3 and 5 min, respectively, under continuous flow of 30 μl/min using scFv concentrations ranging 5 to 200 nM. Regeneration was performed by injection of regenerate buffer (0.2 M NaCl, 10 mM glycine, pH 2.7). To determine binding constants, the sensorgrams were fit globally to a sample 1:1 interaction model using BIAevaluation software (GE healthcare).
# Binding kinetic constants (Kon and Koff) and affinity of each soluble scFv for c-Met932-Fc protein were measured by Surface Plasmon Resonance (SPR).
# Kon and Koff were measured by SRP in a BIAcore using purified scFvs, and the Kd was calculated by BIAevaluation software.
# [1] = target: T4, 293T cells ectopically expressing human c-Met (Homo sapiens, UniProt P08581); test: Phage binding to c-Met-overexpressing 293T cells (flow cytometry, immunofluorescence); format: cell-based; conditions: 293T overexpressing c-Met vs 293T; flow cytometry and immunofluorescence
# T4 construct: The DNA encoding full-length c-Met was amplified by PCR; expressed in transfected cells; host or cells: 293T cells transfected with pEF-c-Met expression vector
# T4 sequence (P08581 25-1408 isoform P08581-2 limits assumed): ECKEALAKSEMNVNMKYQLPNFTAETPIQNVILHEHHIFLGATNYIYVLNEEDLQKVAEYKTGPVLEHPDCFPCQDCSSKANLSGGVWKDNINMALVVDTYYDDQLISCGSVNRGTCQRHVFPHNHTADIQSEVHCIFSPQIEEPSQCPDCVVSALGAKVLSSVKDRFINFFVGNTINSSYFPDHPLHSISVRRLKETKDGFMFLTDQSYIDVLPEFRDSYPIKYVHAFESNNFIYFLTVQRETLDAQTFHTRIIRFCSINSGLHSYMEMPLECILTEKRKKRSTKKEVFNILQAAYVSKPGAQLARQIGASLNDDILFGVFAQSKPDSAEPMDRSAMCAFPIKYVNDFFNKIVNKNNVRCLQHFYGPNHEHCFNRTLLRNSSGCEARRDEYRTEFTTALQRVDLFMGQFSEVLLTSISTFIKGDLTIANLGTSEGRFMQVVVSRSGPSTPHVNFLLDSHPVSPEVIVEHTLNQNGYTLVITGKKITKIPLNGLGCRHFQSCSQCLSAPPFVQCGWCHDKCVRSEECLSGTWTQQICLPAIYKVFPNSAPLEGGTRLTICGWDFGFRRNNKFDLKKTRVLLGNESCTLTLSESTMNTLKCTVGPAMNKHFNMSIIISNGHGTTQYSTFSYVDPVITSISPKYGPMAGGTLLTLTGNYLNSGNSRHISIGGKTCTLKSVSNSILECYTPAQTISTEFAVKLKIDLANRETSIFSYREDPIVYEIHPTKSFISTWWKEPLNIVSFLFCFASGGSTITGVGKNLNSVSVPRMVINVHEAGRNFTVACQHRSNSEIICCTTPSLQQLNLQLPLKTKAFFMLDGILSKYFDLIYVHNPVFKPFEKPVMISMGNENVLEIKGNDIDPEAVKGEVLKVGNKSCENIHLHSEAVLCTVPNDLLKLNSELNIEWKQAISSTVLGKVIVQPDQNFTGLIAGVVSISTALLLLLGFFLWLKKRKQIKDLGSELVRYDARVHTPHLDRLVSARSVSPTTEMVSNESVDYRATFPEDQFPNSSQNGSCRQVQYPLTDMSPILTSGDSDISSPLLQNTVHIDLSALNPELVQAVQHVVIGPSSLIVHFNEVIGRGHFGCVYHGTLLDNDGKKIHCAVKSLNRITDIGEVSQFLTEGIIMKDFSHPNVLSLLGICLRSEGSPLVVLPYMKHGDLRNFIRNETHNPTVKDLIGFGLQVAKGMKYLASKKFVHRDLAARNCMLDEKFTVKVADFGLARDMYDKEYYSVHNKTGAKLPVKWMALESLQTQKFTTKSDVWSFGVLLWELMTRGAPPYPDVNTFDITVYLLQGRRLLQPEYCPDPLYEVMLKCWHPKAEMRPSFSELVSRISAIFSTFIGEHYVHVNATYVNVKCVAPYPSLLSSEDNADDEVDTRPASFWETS
# Protocol: For immunofluorescence staining assay, 293T cells were grown on coverslips to 80% confluence. Transfection of the cells with pEF-c-Met expression vector was performed using Lipofectamin 2000 (Invitrogen) according to manufacturer's instructions. At 48 hrs post-transfection, the cells were incubated with the selected anti-c-Met phage or control phage, by 1×10^10 phage titer for 30 min at 4° C. After the cells were washed twice with PBS, they were fixed by 4% paraformaldehyde, permeabilized with 0.1% TritonX-100 and blocked with 3% BSA. […] The fluorescence images were captured by inverted fluorescence microscope (Axiovert 200M, Zeiss).
# For flow cytometry analysis, 293T cells were grown to 80% confluence and transfected with pEF-c-Met expression vector as described above. […] Analysis was performed using FACSCantoll (BD) and emission fluorescence intensity was measured by FACSDiva software (BD) to quantitatively compare their binding affinities
# To examine the specificity and binding affinity of the three phage clones, a comparative ELISA using the same phage titer was performed. […] The three clones were assessed for binding to cell-surface c-Met by flow cytometry and immunofluorescence assay using 293T cells ectopically expressing human c-Met. […]
# [2] = target: T5, c-Met expressed on H1993 cells (Homo sapiens, UniProt P08581); test: Competition ELISA: phage clones inhibit HGF binding to H1993 cells; conditions: phage-displayed scFv; HGF binding without competitors = 100%
# T5 construct: H1993 is known to express a high level of c-Met; endogenous in cells; host or cells: H1993
# Protocol: as §1
# c-Met-Fc protein = target: T6, c-Met-Fc protein (Homo sapiens, UniProt P08581); test: Phage ELISA for binding to c-Met-Fc protein; conditions: same phage titer
# T6 construct: Fc; purchased R&D
# T6 sequence (P08581 with tags, fused parts or gaps limits assumed): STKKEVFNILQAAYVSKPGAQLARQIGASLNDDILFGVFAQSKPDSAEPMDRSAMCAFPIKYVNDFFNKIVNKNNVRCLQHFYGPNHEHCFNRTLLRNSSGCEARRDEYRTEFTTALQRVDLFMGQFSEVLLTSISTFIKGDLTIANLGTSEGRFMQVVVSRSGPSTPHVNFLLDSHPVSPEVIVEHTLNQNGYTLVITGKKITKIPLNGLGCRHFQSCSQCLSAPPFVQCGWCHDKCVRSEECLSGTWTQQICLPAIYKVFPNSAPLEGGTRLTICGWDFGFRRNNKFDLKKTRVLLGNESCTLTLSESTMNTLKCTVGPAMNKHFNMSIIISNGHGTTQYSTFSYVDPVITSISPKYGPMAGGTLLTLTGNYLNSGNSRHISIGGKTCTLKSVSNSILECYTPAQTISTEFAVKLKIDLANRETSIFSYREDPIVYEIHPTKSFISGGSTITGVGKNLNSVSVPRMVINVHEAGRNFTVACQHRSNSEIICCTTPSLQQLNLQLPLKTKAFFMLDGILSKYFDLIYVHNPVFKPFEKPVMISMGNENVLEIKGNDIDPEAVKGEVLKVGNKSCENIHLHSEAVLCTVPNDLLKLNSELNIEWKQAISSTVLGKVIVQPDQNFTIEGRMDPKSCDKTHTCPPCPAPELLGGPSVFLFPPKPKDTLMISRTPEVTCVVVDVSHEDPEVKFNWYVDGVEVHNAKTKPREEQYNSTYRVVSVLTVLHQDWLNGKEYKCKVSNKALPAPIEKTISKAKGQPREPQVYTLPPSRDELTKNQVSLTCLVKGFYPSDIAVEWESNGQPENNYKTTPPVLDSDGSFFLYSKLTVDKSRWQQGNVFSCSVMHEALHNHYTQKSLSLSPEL
# T6 sequence (P08581 25-307 limits assumed): as the sequence (P08581 25-307 limits assumed) above
# Protocol: Selection of phages displaying specific anti-c-Met scFv was performed by protein G dynabeads (Invitrogen). c-Met-Fc recombinant protein (R&D) was incubated with protein G dynabeads at room temperature (RT) for 1 hr. The scFv library (2×10^9 members) was subtracted non-specific binding in protein G dynabeads and subsequently incubated with c-Met-Fc immobilized dynabeads for 1 hr at 4° C. Unbound phages were removed by washing 4 times with PBST. The phages that bound to c-Met-Fc were recovered by infection with E. coli TG1 cells at 37° C. for 30 min. Part of the infected cells were serial diluted to determine titer, and the others were rescued by M13KO7 helper phage (NEB). […]
# To examine the specificity and binding affinity of the three phage clones, a comparative ELISA using the same phage titer was performed. […] The three clones were assessed for binding to cell-surface c-Met by flow cytometry and immunofluorescence assay using 293T cells ectopically expressing human c-Met. […] Soluble anti-c-Met scFvs were purified from periplasmic extract of phage-infected E-coli HB2151 by protein L agarose chromatography, and then assessed by coomassie blue staining representing purified anti-c-Met scFv proteins (S1, S20 and S21) localized in vicinity of 30 kDa corresponding to protein weight marker (upper panel of FIG. 8, panel B).
# [3] = purified scFv, c-MetF932-Fc on CM5 chip
molecule,measurement,setting,value
B1,Inhibition of binding activity of HGF to c-Met,c-MetF932-Fc protein,only slightly inhibited
same,Binding to c-Met567-Fc compared to c-Met932-Fc,c-Met567-Fc protein,dramatically decreased
same,Kd,"c-Met932-Fc protein; purified scFv 5 to 200 nM, c-MetF932-Fc coupled to CM5 chip, Kd calculated by BIAevaluation software",14.9 nM
same,Koff,c-Met932-Fc protein; [3],0.00389 s⁻¹
same,Kon,c-Met932-Fc protein; [3],261000 M⁻¹ s⁻¹
B2,Binding to cellular c-Met on 293T cells,[1],higher than that of PC20 and PC21
same,Inhibition of HGF binding to H1993 cells,[2],more than 90%
same,c-Met binding affinity in comparative ELISA,c-Met-Fc protein,stronger c-Met binding affinity than either PC20 or PC21
